# Test results published in PMC9272825 (The Journal of Physical Chemistry. B, 2022).
# “And” between values parts separate entries of the source, which are not always exact repeats. Equal values may be shown once.
# Target: N-terminal domain of enzyme I (EIN) (UniProt P08839 1-249)
# Assay: NMR titration
binder,measurement,value
Histidine phosphocarrier protein (HPr) (natural protein) not shown,Kd,2820 nM and 2450 nM and 3030 nM and 3020 nM
